In PMC13596708 one finds IC50, IC50 after accounting for the 12 nucleosomes per array and Kd data, which are given here for three substances.

As usually defined, the IC50 is the midpoint of a concentration-inhibition curve. For orientation: Kd means the equilibrium constant for the complex coming apart. Lower therefore signals tighter binding.

Common to all, as to experiment: AlphaScreen or HTRF
For assay [1], the target named is HIS-tagged BRD4 short isoform (BRD4-S), wild type (human) (UniProt O60885).
Assay [2] has the same target. The source holds these as a separate data set.
The target in assay [3] is unmodified nucleosome (human | Xenopus laevis) (UniProt P04908).
Assay [4] deals with H4 K12acK16ac nucleosome (human | Xenopus laevis) (UniProt P04908).
The target is the same in assay [5]. The source holds these as a separate data set.
Assay [6] shares this target. This is another data set of the same source.
The target in assay [7] is unmodified nucleosome (human | Xenopus laevis) (UniProt P04908). The source holds these as a separate data set.
The target of assay [8] is H4 K12acK16ac nucleosome (human | Xenopus laevis) (UniProt P04908). This is another data set of the same source.
In assay [9] the target is unmodified nucleosome (human | Xenopus laevis) (UniProt P04908). The source holds these as a separate data set.
Assay [10] concerns the target H4 K12acK16ac nucleosome (human | Xenopus laevis) (UniProt P04908). This is another data set of the same source.
In assay [11] the target is unmodified nucleosome (human | Xenopus laevis) (UniProt P04908). This is another data set of the same source.
Assay [12] addresses H4 K12acK16ac nucleosome (human | Xenopus laevis) (UniProt P04908). This is another data set of the same source.
Assay [13] concerns the target unmodified nucleosome (human | Xenopus laevis) (UniProt P04908). The source holds these as a separate data set.

Read-outs that look alike come from different tables or passages of the source.

In assay [1], “12x nucleosome array, H4 K12acK16ac histones (from UniProt P04908 1-130; P06899 1-126; P62799 1-103) (complex)” showed a concentration for half-maximal inhibition (IC50) of 1 nM and an IC50 after accounting for the 12 nucleosomes per array of 12 nM. Moreover, in [2], the IC50 was determined as 2.4 nM.
As to “12x nucleosome array, unmodified histones (from UniProt P04908 1-130; P06899 1-126) (complex)”, the IC50 in assay [1] was 3.3 nM; in [2], 1.3 nM. The substance also returned an IC50 after accounting for the 12 nucleosomes per array in [1] of 40 nM.
As for “HIS-tagged BRD4 short isoform (BRD4-S), wild type (from UniProt O60885-2 2-722) (natural protein)”, the Kd came out at 43 nM in [3]; 12.2 nM in assay [4]; 37 nM in assay [5]; 18 nM in assay [6]; 71 nM in [7]; 26 nM in assay [8]. Further, the Kd in assay [9] was found to be 100 nM; in assay [10], 42 nM; in assay [11] it was 37 nM; in [12] it was 8 nM; in assay [13], 6.6 nM.
